According to the supplement of paper PMC7877785:
± gives the uncertainty stated by the source.

Assay: self-splicing fitness, log relative to wild type (ln ratio); higher = more splicing; Tetrahymena group I intron in knt gene, E. coli kanamycin selection, DiMSum; sequences stand for … in CUCUCU…GGAGGGAAAAGUUAUCAGGCAUGCACCUGGUAGCUAGUCUUUAAACCAAUAGAUUGCAUCGGUUUAAAAGGCAAGACCGUCAAAUUGCGGGAAAGGGGUCAACAGCCGUUCAGUACCAAGUCUCAGGGGAAACUUUGAGAUGGCCUUGCAAAGGGUAUGGUAAUAAGCUGACGGACAUGGUCCUAACCACGCAGCCAAGUCCUAAGUCAACAGAUCUUCUGUUGAUAUGGAUGCAGUUCACAGACUAAAUGUCGGUCGGGGAAGAUGUAUUCUUCUCAUAAGAUAUAGUCGGACCUCUCCUUAAUGGGAGCUAGCGGAUGAAGUGAUGCAACACUGGAGCCGCUGGGAACUAAUUUGUAUGCGAAAGUAUAUUGAUUAGUUUUGGAGUACUCGUGGUCG
Method in brief: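 Pooled colonies went to amplicon sequencing on an Illumina HiSeq 2500 after six replicate transformations. The plates were LB agar with 100 μg/mL carbenicillin, 50 μM IPTG and 0.2% rhamnose, with or without 25 μg/mL kanamycin, incubated overnight at 37°C or 30°C. The E. coli BL21(DE3) library had all eight P1ex-region intron nucleotides randomised, the intron placed in the knt kanamycin-resistance gene on pET-22b(+). DiMSum fitness is the error-weighted combination of replicate fold changes, kanamycin against none, normalised to wild type.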

Sequence: UGUGAGCAAUAUUACGAUGA
- self-splicing fitness (ln) (30 °C): -2.75 ± 0.17
- self-splicing fitness (ln) (37 °C): -2.21 ± 0.17

Sequence: ACCAAGCAAUAUUACGGAAA
- self-splicing fitness (ln) (30 °C): -3.14 ± 0.18
- self-splicing fitness (ln) (37 °C): -1.9 ± 0.13

Sequence: GAUGAGCAAUAUUACGGGCA
- self-splicing fitness (ln) (30 °C): -1.87 ± 0.2
- self-splicing fitness (ln) (37 °C): -1.88 ± 0.28

Sequence: UACAAGCAAUAUUACGGCAA
- self-splicing fitness (ln) (30 °C): -0.904 ± 0.072
- self-splicing fitness (ln) (37 °C): -0.0888 ± 0.088

Sequence: UUGAAGCAAUAUUACGGAGA
- self-splicing fitness (ln) (30 °C): -0.684 ± 0.11
- self-splicing fitness (ln) (37 °C): -0.479 ± 0.15

Sequence: GAGUAGCAAUAUUACGCAAC
- self-splicing fitness (ln) (30 °C): -3.77 ± 0.37
- self-splicing fitness (ln) (37 °C): -2.66 ± 0.36

Sequence: UGUAAGCAAUAUUACGUACG
- self-splicing fitness (ln) (30 °C): -0.346 ± 0.057
- self-splicing fitness (ln) (37 °C): -0.333 ± 0.067

Sequence: GUAGAGCAAUAUUACGGUAC
- self-splicing fitness (ln) (30 °C): -1.54 ± 0.12
- self-splicing fitness (ln) (37 °C): 0.127 ± 0.14

Sequence: GGUAAGCAAUAUUACGCCCA
- self-splicing fitness (ln) (30 °C): -1.68 ± 0.23
- self-splicing fitness (ln) (37 °C): -1.01 ± 0.27

Sequence: CCUCAGCAAUAUUACGCCGG
- self-splicing fitness (ln) (30 °C): -3.32 ± 0.21
- self-splicing fitness (ln) (37 °C): -0.587 ± 0.15

Sequence: UGUUAGCAAUAUUACGCGAA
- self-splicing fitness (ln) (30 °C): -0.983 ± 0.12
- self-splicing fitness (ln) (37 °C): -0.191 ± 0.1

Sequence: CUAUAGCAAUAUUACGCAAU
- self-splicing fitness (ln) (30 °C): -3.66 ± 0.24
- self-splicing fitness (ln) (37 °C): -1.58 ± 0.21

Sequence: GCUCAGCAAUAUUACGUGCU
- self-splicing fitness (ln) (30 °C): -2.26 ± 0.086
- self-splicing fitness (ln) (37 °C): -0.582 ± 0.09

Sequence: GAGAAGCAAUAUUACGUCCA
- self-splicing fitness (ln) (30 °C): -0.235 ± 0.12
- self-splicing fitness (ln) (37 °C): 0.335 ± 0.14

Sequence: UGUCAGCAAUAUUACGGGGU
- self-splicing fitness (ln) (30 °C): -2.91 ± 0.18
- self-splicing fitness (ln) (37 °C): -2.49 ± 0.23

Sequence: UCUCAGCAAUAUUACGGUGC
- self-splicing fitness (ln) (30 °C): -3.17 ± 0.24
- self-splicing fitness (ln) (37 °C): -3.08 ± 0.23

Sequence: ACCGAGCAAUAUUACGUGGC
- self-splicing fitness (ln) (30 °C): -4.18 ± 0.2
- self-splicing fitness (ln) (37 °C): -2.21 ± 0.18

Sequence: CAUCAGCAAUAUUACGACGC
- self-splicing fitness (ln) (30 °C): -2.37 ± 0.23
- self-splicing fitness (ln) (37 °C): -1.23 ± 0.26

Sequence: AUUGAGCAAUAUUACGUGAU
- self-splicing fitness (ln) (30 °C): -1.58 ± 0.14
- self-splicing fitness (ln) (37 °C): -2.17 ± 0.22

Sequence: CUGCAGCAAUAUUACGUUGU
- self-splicing fitness (ln) (30 °C): -4.62 ± 0.25
- self-splicing fitness (ln) (37 °C): -2.54 ± 0.2

Sequence: CUGAAGCAAUAUUACGACUG
- self-splicing fitness (ln) (30 °C): 0.187 ± 0.08
- self-splicing fitness (ln) (37 °C): 0.678 ± 0.11

Sequence: CGAAAGCAAUAUUACGGAUG
- self-splicing fitness (ln) (30 °C): -0.462 ± 0.066
- self-splicing fitness (ln) (37 °C): -0.00232 ± 0.091

Sequence: CGGAAGCAAUAUUACGCAUA
- self-splicing fitness (ln) (37 °C): -1.12 ± 0.27

Sequence: UCCCAGCAAUAUUACGUGAC
- self-splicing fitness (ln) (30 °C): -2.74 ± 0.15
- self-splicing fitness (ln) (37 °C): -3.06 ± 0.32

Sequence: CGCCAGCAAUAUUACGCUCC
- self-splicing fitness (ln) (30 °C): -0.395 ± 0.13
- self-splicing fitness (ln) (37 °C): -1.36 ± 0.2

Sequence: GAACAGCAAUAUUACGUAGU
- self-splicing fitness (ln) (30 °C): -1.55 ± 0.06
- self-splicing fitness (ln) (37 °C): -0.106 ± 0.075

Sequence: UGACAGCAAUAUUACGAUCC
- self-splicing fitness (ln) (30 °C): -0.422 ± 0.09
- self-splicing fitness (ln) (37 °C): 0.083 ± 0.11

Sequence: GGCAAGCAAUAUUACGUCCC
- self-splicing fitness (ln) (37 °C): -0.249 ± 0.28

Sequence: UAUGAGCAAUAUUACGUAAA
- self-splicing fitness (ln) (30 °C): -3.46 ± 0.32
- self-splicing fitness (ln) (37 °C): -1.59 ± 0.19

Sequence: GUCCAGCAAUAUUACGUCUU
- self-splicing fitness (ln) (30 °C): -0.409 ± 0.081
- self-splicing fitness (ln) (37 °C): 0.275 ± 0.092

Sequence: GGGUAGCAAUAUUACGUGAG
- self-splicing fitness (ln) (30 °C): -0.474 ± 0.074
- self-splicing fitness (ln) (37 °C): 0.074 ± 0.11

Sequence: UUUUAGCAAUAUUACGGACG
- self-splicing fitness (ln) (30 °C): -0.75 ± 0.2
- self-splicing fitness (ln) (37 °C): -0.45 ± 0.2

Sequence: CCCGAGCAAUAUUACGUGAC
- self-splicing fitness (ln) (37 °C): -2.41 ± 0.3

Sequence: CCUGAGCAAUAUUACGAGCU
- self-splicing fitness (ln) (37 °C): -1.95 ± 0.42

Sequence: GUGUAGCAAUAUUACGGUCA
- self-splicing fitness (ln) (30 °C): -1.36 ± 0.14
- self-splicing fitness (ln) (37 °C): -2.06 ± 0.12

Sequence: UAUUAGCAAUAUUACGAAGU
- self-splicing fitness (ln) (30 °C): -2.67 ± 0.42
- self-splicing fitness (ln) (37 °C): -2.12 ± 0.4

Sequence: AUUAAGCAAUAUUACGAUCG
- self-splicing fitness (ln) (30 °C): -2.33 ± 0.12
- self-splicing fitness (ln) (37 °C): -0.671 ± 0.12

Sequence: UAAUAGCAAUAUUACGCGCG
- self-splicing fitness (ln) (30 °C): -0.452 ± 0.11
- self-splicing fitness (ln) (37 °C): -0.333 ± 0.14

Sequence: AGAGAGCAAUAUUACGGGGA
- self-splicing fitness (ln) (30 °C): -2.46 ± 0.25
- self-splicing fitness (ln) (37 °C): -1.84 ± 0.28

Sequence: CGUGAGCAAUAUUACGGCGG
- self-splicing fitness (ln) (30 °C): 0.333 ± 0.089
- self-splicing fitness (ln) (37 °C): 0.466 ± 0.11

Sequence: UUGCAGCAAUAUUACGCAGG
- self-splicing fitness (ln) (30 °C): -3.72 ± 0.25
- self-splicing fitness (ln) (37 °C): -2.68 ± 0.25

Sequence: AGGAAGCAAUAUUACGGGAU
- self-splicing fitness (ln) (30 °C): -2.75 ± 0.19
- self-splicing fitness (ln) (37 °C): -2.06 ± 0.18

Sequence: AGGAAGCAAUAUUACGCUUG
- self-splicing fitness (ln) (30 °C): -2.64 ± 0.14
- self-splicing fitness (ln) (37 °C): -0.302 ± 0.11

Sequence: GGUGAGCAAUAUUACGACAG
- self-splicing fitness (ln) (30 °C): -3.05 ± 0.41

Sequence: AACUAGCAAUAUUACGGACC
- self-splicing fitness (ln) (30 °C): -0.676 ± 0.071
- self-splicing fitness (ln) (37 °C): -0.0449 ± 0.11

Sequence: CGCGAGCAAUAUUACGGAUG
- self-splicing fitness (ln) (30 °C): -2.25 ± 0.17
- self-splicing fitness (ln) (37 °C): -0.671 ± 0.12

Sequence: AUGCAGCAAUAUUACGGAUA
- self-splicing fitness (ln) (30 °C): -2.99 ± 0.17
- self-splicing fitness (ln) (37 °C): -2.22 ± 0.17

Sequence: AAAAAGCAAUAUUACGUAAA
- self-splicing fitness (ln) (30 °C): -1.82 ± 0.086
- self-splicing fitness (ln) (37 °C): -1.19 ± 0.09

Sequence: UAGGAGCAAUAUUACGAGUA
- self-splicing fitness (ln) (30 °C): -2.81 ± 0.24
- self-splicing fitness (ln) (37 °C): -1.93 ± 0.22
